We go through two molecules from article PMC6206164, “Fibroblast Growth Factor Binding Protein 3 (FGFBP3) impacts carbohydrate and lipid metabolism” (Scientific Reports, 2018).

B1: MBP-tagged human recombinant BP3 devoid of its signal peptide (natural protein, UniProt Q8TAT2 27-258, looked up)
chain: RREKGAASNVAEPVPGPTGGSSGRFLSPEQHACSWQLLLPAPEAAAGSELALRCQSPDGARHQCAYRGHPERCAAYAARRAHFWKQVLGGLRKKRRPCHDPAPLQARLCAGKKGHGAELRLVPRASPPARPTVAGFAGESKPRARNRGRTRERASGPAAGTPPPQSAPPKENPSERKTNEGKRKAALVPNEERPMGTGPDPDGLDGNAELTETYCAEKWHSLCNFFVNFWNG
notes: also called FGFBP3

Experiment [1] concerns the target T1, Human recombinant FGFR4 Fc Chimera (human, UniProt P22455 22-369).
T1 construct: Fibroblast growth factor receptor 4 (FGFR4), human, as Fc chimera; Commercial Fc chimeras of this kind hold the extracellular domain; source: bought: R&D Systems
Briefly: binding to plate-coated receptor detected by western blot; cell-free; FGFR4 Fc chimera coated on MaxiSorp plates; FGF19 (2 μg/ml) ± BP3 or MBP control (1 μg/ml), 2 h room temperature; bound proteins blotted with anti-FGFR4, anti-MBP, anti-FGF19. The conditions noted are these: both partners purified. In general terms: In western blotting, separated proteins are transferred to a membrane and probed.

Experiment [2] addresses B1. Briefly: ELISA; competitive binding; increasing excess of KLB or KLa bound to immobilised FGF19 or FGF21 (2.5 μg/ml) for 1 h before BP3 or MBP control (0.15 μg/ml); MaxiSorp plates. The conditions noted are these: both partners purified.

B1: in experiment [1], the binding result is reported as “binds”.

B2: Recombinant human FGF21 (ligand, UniProt Q9NSA1 29-209, looked up)
chain: HPIPDSSPLLQFGGQVRQRYLYTDDAQQTEAHLEIREDGTVGGAADQSPESLLQLKALKPGVIQILGVKTSRFLCQRPDGALYGSLHFDPEACSFRELLLEDGYNVYQSEAHGLPLHLPGNKSPHRDPAPRGPARFLPLPGLPPALPEPPGILAPQPPDVGSSDPLSMVGPSQGRSPSYAS
notes: Fibroblast growth factor 21 (FGF21), human, recombinant; source: bought: R&D Systems
Regarding B2, the binding result in experiment [2] is given as “binds”.
